We go through four molecules from US20250296984A1, “THERAPEUTIC AND DIAGNOSTIC AGENTS AND USES THEREOF” (priority 2022, published 2025).

The subject of test [1] is control CHO cells (US28 negative). As to the kind of experiment: FACS binding to US28 negative control CHO cells. Also noted: species or system Chinese hamster. As for the experimental part:
Flowcytometry was used to analyze cell surface binding by the US28 antibodies. Upon cell harvest, adherent non-infected and US28 overexpressing or HCMV infected cells were washed three times with cell staining buffer (phosphate-buffered saline (PBS (Amresco, Cleveland, 44139, USA) added 0.5% BSA and 0.05% Sodium Azide (NaN3)). The cells were trypisinized and then resuspended in DMEM with 10% FBS to inhibit the action of trypsin. The cells were then pelleted at 400×g for 10 minutes and washed three times in cell staining buffer. Cell viability and cell concentration were measured by tryphan blue viability assay and a cell counter (Countess, Invitrogen, Carlsbad, CA 92008, USA). The cell suspension was adjusted to 1×10^6 cells/mL with ice-cold cell staining buffer. The cells were blocked in 1 ml 10% FBS or 1% BSA in PBS per 1×10^6 cells, vortexed briefly, and incubated for 10-30 minutes to eliminate non-specific staining. The cells were then stained with the respective antibodies and appropriate negative controls.
In both cases (ECD1 and ECD3), the antibodies were added to the cells, vortexed and incubated on ice for 15 to 30 minutes up to overnight and washed twice with cell staining buffer to remove any unbound antibodies. In addition, the CMV Immediate Early Antigen (IE) Alexa488 Ab, MAB810X, 1:50 was included to verify HCMV infected cells in one of the experiments. Because it binds to an intracellular, HCMV encoded protein, it was added after permeabilizing the cells in 70% ethanol for 30 min on ice.
1:500-1:5000 in cell staining buffer of the appropriate fluorescent-conjugated appropriate secondary antibodies were added and incubated on ice for 15-20 min in the dark. The cells were washed three times to remove any unbound antibodies. The cells were then fixed with 0.5% paraformaldehyde (PFA) for 30 min on ice and resuspended in 200-500 μL cell staining buffer for final flow cytometric analysis using an Accuri C6 flow cytometry system (BD Biosciences, San Jose, CA 95131, USA). Data analyses were performed using FlowJo software v8.8 (Treestar Inc. Ashland, OR 97520, USA).
Background levels were determined using the respective secondary antibodies (anti-mFc-FITC for the subclones, or anti-myc-PE for the VUN100 molecules) with CHO cells and CHO-US28 cells. Given that US28 is expressed on the cell surface, the cells were non-permeabilised for these experiments.
A general note: In flow cytometry, cells or beads pass a laser one at a time.

Test [2] deals with human heart muscle tissue. The experiment in a line: IHC on human cardiac tissue samples (TMA with malignant pheochromocytoma positive control). The method, then:
FIG. 19. A. Flowcytometry analysis with the 28-13-5G6-1D3-PE antibody were conducted on various human primary cells to exclude general off-target binding to the surface of these cell types. The following cell lines were studied: human primary adrenal cortical cells, human primary kidney epithelial cells, human primary cardiac microvascular endothelial cells, human primary liver epithelial cells and human primary vein smooth muscle cells. […] B. Original human primary cardiac cells were not available, and human cardiac tissue samples were therefore studied for staining of 13-5G6-1D3 by immunohistochemistry. […] If there were HCMV infections present in the human heart, they were always of productive infection type. […] The positive 13-5G6-1D3 and HCMV ISH results are marked with arrows in the figure. A colour version of FIG. 19 is also provided.

The test system of test [3] is human cancer tissues and adjacent normal tissues. As to the kind of experiment: Immunohistochemistry (IHC) on human cancer tissue micro-arrays. As for the experimental part: Cytomegalovirus (CMV) control slides containing CMV positive lung tissue and CMV negative myometrium (product number #3240A) were obtained from Newcomer Supply Inc., Middleton, WI 53562-2579, USA. Tissue micro-arrays (TMAs) were obtained from US Biomax Inc., Derwood, MD 20855, USA, and included tumor tissues #BR1008b, #BS17016c, #BCN721b and normal tissues #FDA662a and heart tissues #HEN241a.
The paraffin sections were sequentially immersed into a. 100% xylene three times (5 min each); b. 100% ethanol twice (2 min each); c. 95% ethanol twice (2 min each). The slides were rinsed twice in water for 5 min to remove ethanol. […], the slides were immersed in 3% H2O2 for 5 minutes and washed thereafter twice (2×) with distilled water. The slides were then immersed in the working citrate buffer (pH 6.0) and covered with a lid. The buffer was heated in the microwave until it had boiled, and then kept in the steamer for 15 min.
The sections were cooled at room temperature for 30 min and washed with PBS. 5% BSA blocking solution was then added to the HIER treated samples and they were incubated at 37° C. for 30 min. The primary antibody was diluted according to the best results from the dilution gradient tests and added to the samples for incubation overnight at 4° C. or 37° C. for 1 h. The slides were then washed three times in PBS on the shaker. The secondary antibodies were used in 1:200 dilution, added to the samples and incubated at 37° C. for 30 min. The slides were washed three times (5 min each) in PBS on the shaker. Strept-Avidin Biotin Complex (SABC) HRP- or AP-conjugated reagents were added, and the samples were incubated in dark at room temperature. The samples were thereafter washed in distilled water, counter stained by hematoxylin, and then dehydrated through gradient ethanol from 70% to 100%, and cleared by 3 times in xylene, 5 min each. Slides were mounted by ACRYMOUNT (StatLab, MicKinney, TX 75069, USA) and cover-slipped. Digitized pictures were taken by Olympus VS120 scanner and analyzed by using OlyVia 3.2 software (Olympus Corporation, 20101 Tokyo, Japan) by senior Pathologist.
We thereafter studied the binding of US28-13-5G6-1D3 rAb to human cancer tissues by using IHC and confirmatory ISH analyses. The results were evaluated by a Senior Pathologist. We found specific staining of the US28-13-5G6-1D3 rAb on several cancer types. Among these were glioblastomas (e.g. glioblastoma grade 4), colonic cancer, rectum cancer, breast cancer (e.g. locally advanced breast cancer and its metastasis), oesophagus cancer, gastric/stomach cancer, pancreas cancer, liver cancer such as hepatocellular carcinoma, lung cancer, malignant pheochromocytoma and cervical cancer, showing for the first time a potential universal role of US28 in pathology of cancer. The staining intensity of different cancer cells were classified as negative=0, weakly positive=1+, moderately positive=2+ or strongly positive=3+. […] In the majority of tumors with a positive US28-13-5G6-1D3 rAb staining, the staining was generally positive in large parts of the tumor cells. The tumor positivity was confirmed by positive finding of HCMV DNA in nucleus of the tumor cells by using ISH. […] The IgG control Ab staining was used as negative control and was negative in all of the studied cancerous and normal tissues.

B1: 13-5G6-1D3 rAb: recombinant antibody product of US28-13-5G6-1D3 produced in HEK293-F cells (antibody)
heavy: EVKLVESGGGLVQPGGSLRLACATSGFTFTDYYMSWVRQPPGKALEWLGFIRSKANGYTTEYSASVKGRFTISRDNSQSILYLQMNTLRSEDSATYYCARDERRTAWLAYWGQGTLVTVSAAKTTPPSVYPLAPGSAAQTNSMVTLGCLVKGYFPEPVTVTWNSGSLSSGVHTFPAVLQSDLYTLSSSVTVPSSTWPSETVTCNVAHPASSTKVDKKIVPRDCGCKPCICTVPEVSSVFIFPPKPKDVLTITLTPKVTCVVVDISKDDPEVQFSWFVDDVEVHTAQTQPREEQFNSTFRSVSELPIMHQDWLNGKEFKCRVNSAAFPAPIEKTISKTKGRPKAPQVYTIPPPKEQMAKDKVSLTCMITDFFPEDITVEWQWNGQPAENYKNTQPIMDTDGSYFIYSKLNVQKSNWEAGNTFTCSVLHEGLHNHHTEKSLSHSPGK
light: DVLMTQTPLSLPVSLGDQASISCRSSQSIVHSNGNTYLDWYLQKPGQSPKLLIYKVSNRFSGVPDRFSGSGSGTDFTLKISRVEAEDLGVYYCFQGSHVPTWTFGGGTKLEIKRADAAPTVSIFPPSSEQLTSGGASVVCFLNNFYPKDINVKWKIDGSERQNGVLNSWTDQDSKDSTYSMSSTLTLTKDEYERHNSYTCEATHKTSTSPIVKSFNRNEC
Regarding B1, the “control CHO cells bound” value in test [1] (1:10 dilution (w/v), blank and secondary Ab controls removed, FIG. 7) was determined as 0.77%.

B2: 7B1F3: mouse IgG1 kappa antibody against US28 ECD1 Peptide-N; VH SEQ ID NO: 211, VL SEQ ID NO: 213 (antibody, V domains shown)
VH: EVQLQQSGAELAKPGASVKMSCKASGYTFTNYWMHWVKQRPGQGLEWIGYVNPRTGYTEYNQKFKDKATLTADKSSRTAYMQLSSLTSEDSAVYSCARILNGTGFAYWGQGTLVTVSA
VL: DIVLTQSPSSLTVSVGEKFTMSCKSSQSLLYSSNQKNYLAWYQQKPGQSPKLLIYWASTRESGVPDRFTGSGSGTDFTLAISSVKPEDLAIYYCQQYYSFPLTFGAGTKLEIK
modifications: Mature form of VH sequence of 7B1F3, without the leader sequence; Mature form of VL sequence of 7B1F3, without the leader sequence
As to B2, in test [1] (Table 7B, (1:5), secondary antibody background removed), the “Percentage of binding to CHO cells” value is on record as 0.67%.

B3: US28-13-5G6-1D3: monoclonal antibody against ECD3 of HCMV US28; VH SEQ ID NO: 12, VL SEQ ID NO: 18; rAb is the recombinant product (antibody, V domains shown)
VH: EVKLVESGGGLVQPGGSLRLACATSGFTFTDYYMSWVRQPPGKALEWLGFIRSKANGYTTEYSASVKGRFTISRDNSQSILYLQMNTLRSEDSATYYCARDERRTAWLAYWGQGTLVTVSA
VL: DVLMTQTPLSLPVSLGDQASISCRSSQSIVHSNGNTYLDWYLQKPGQSPKLLIYKVSNRFSGVPDRFSGSGSGTDFTLKISRVEAEDLGVYYCFQGSHVPTWTFGGGTKLEIK
modifications: Mature form of VH sequence of 1D3, without the leader sequence; Mature form of VL sequence of 1D3, without the leader sequence
notes: monoclonal antibody against ECD3 of HCMV US28; rAb is the recombinant product
For B3, the “IHC staining of heart muscle tissue” value in test [2] is “negative”. The staining of metastases result in test [3] (All TNBC (n=8) and HER2 positive (n=11) metastases) is reported as “positive”. In addition, the “samples positive for staining” value in test [3] (Hepatocellular carcinomas) is 2/3; in test [3] (cervix cancer samples) it was 2/3; in test [3] (lung cancer samples), 2/3; in test [3] (pancreas cancer samples) it was 1/3. The “controls negative for staining” value in test [3] (epithelial cells adjacent to colon adenocarcinoma) is 3/3. Besides, in test [3] (rectum adenocarcinoma, 3 studied), the “number of samples with positive staining” value is 3.

B4: 13-5G6-1D3: mouse monoclonal IgG1 kappa antibody against US28 ECD3; VH SEQ ID NO: 12, VL SEQ ID NO: 18 (antibody, V domains shown)
VH: B3 VH
VL: B3 VL
modifications: Mature form of VH sequence of 1D3, without the leader sequence; Mature form of VL sequence of 1D3, without the leader sequence
Consider B4, for which, in test [2] (positive control on the same TMA plate), the “IHC staining of malignant pheochromocytoma” value is reported as “positive staining”. For the same molecule, the “background binding, % of CHO negative control population” value in test [1] (FIG. 21A) is 0.88%. Further, in test [3] (human malignant pheochromocytoma tumor (HCMV positive control), FIG. 19 B), the IHC staining entry was “positive staining”. Also, in test [3] (normal breast epithelial cells), the “adjacent control breast tissues with no cytoplasmic staining” value is listed as 10/10.
